Reference: the supplement of paper PMC5998384

Legend:
[1] = test system: HeLa Kyoto; test: melting temperature (median over replicates), in situ; higher = more thermally stable
[2] = test system: HeLa Kyoto; test: thermal stability score vs G1/S (z-score of summed log2 fold changes over temperatures); higher = more thermally stable than in G1/S
[3] = test system: HeLa Kyoto; test: solubility in G1/S (NP-40 vs SDS abundance) (log2 ratio); higher = more soluble; settings: cell cycle stage: G1/S
[4] = test system: HeLa Kyoto; test: solubility change mitosis vs G1/S (difference of NP-40 vs SDS log2 ratios) (log2 ratio difference); higher = more soluble in mitosis
[5] = cell cycle stage: early G1 (4.5 h after nocodazole release)
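For melting temperature (median over replicates), in situ in this document: HeLa Kyoto cells synchronized by double thymidine or nocodazole block, proteins quantified by TMT10plex mass spectrometry, three independent biological replicates.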
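For solubility change mitosis vs G1/S (difference of NP-40 vs SDS log2 ratios) in this document: synchronized HeLa Kyoto cells (double thymidine block for G1/S, nocodazole release for mitosis), protein amounts in NP-40 versus SDS lysates quantified by mass spectrometry, three biological replicates.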
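For solubility in G1/S (NP-40 vs SDS abundance) in this document: HeLa Kyoto cells arrested at G1/S by double thymidine block, proteins quantified by TMT10plex mass spectrometry in mild NP-40 versus SDS extracts, three biological replicates.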
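For thermal stability score vs G1/S (z-score of summed log2 fold changes over temperatures) in this document: synchronized HeLa Kyoto cells, proteins quantified by TMT10plex mass spectrometry, three biological replicates, mitosis taken 0.5 h after nocodazole release, G1/S directly after double thymidine block.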

| Sequence | melting temperature ([1]; cell cycle stage: G1/S) [°C] | melting temperature ([1]; cell cycle stage: mitosis) [°C] | thermal stability score [2, 5] | thermal stability score ([2]; cell cycle stage: mitosis) | solubility in G1/S (log2) [3] | solubility change mitosis (log2) [4] |
| --- | --- | --- | --- | --- | --- | --- |
| MEDEMPKTLYVGNLSRDVTEALILQLFSQIGPCKNCKMIMDTAGNDPYCFVEFHEHRHAAAALAAMNGRKIMGKEVKVNWATTPSSQKKDTSSSTVVSTQRSQDHFHVFVGDLSPEITTEDIKAAFAPFGRISDARVVKDMATGKSKGYGFVSFFNKWDAENAIQQMGGQWLGGRQIRTNWATRKPPAPKSTYESNTKQLSYDEVVNQSSPSNCTVYCGGVTSGLTEQLMRQTFSPFGQIMEIRVFPDKGYSFVRFNSHESAAHAIVSVNGTTIEGHVVKCYWGKETLDMINPVQQQNQIGYPQPYGQWGQWYGNAQQIGQYMPNGWQVPAYGMYGQAWNQQGFNQTQSSAPWMGPNYGVQPPQGQNGSMLPNQPSGYRVAGYETQ [TIA1] | 53.5 | 53 | -0.653 | -1.44 | 0.0405 | 0.0786 |
| MEDHQHVPIDIQTSKLLDWLVDRRHCSLKWQSLVLTIREKINAAIQDMPESEEIAQLLSGSYIHYFHCLRILDLLKGTEASTKNIFGRYSSQRMKDWQEIIALYEKDNTYLVELSSLLVRNVNYEIPSLKKQIAKCQQLQQEYSRKEEECQAGAAEMREQFYHSCKQYGITGENVRGELLALVKDLPSQLAEIGAAAQQSLGEAIDVYQASVGFVCESPTEQVLPMLRFVQKRGNSTVYEWRTGTEPSVVERPHLEELPEQVAEDAIDWGDFGVEAVSEGTDSGISAEAAGIDWGIFPESDSKDPGGDGIDWGDDAVALQITVLEAGTQAPEGVARGPDALTLLEYTETRNQFLDELMELEIFLAQRAVELSEEADVLSVSQFQLAPAILQGQTKEKMVTMVSVLEDLIGKLTSLQLQHLFMILASPRYVDRVTEFLQQKLKQSQLLALKKELMVQKQQEALEEQAALEPKLDLLLEKTKELQKLIEADISKRYSGRPVNLMGTSL [CDK5RAP3] | 49.5 | 49.4 | 1.2 | 2.62 | 0.203 | -0.0399 |
| MEDLGENTMVLSTLRSLNNFISQRVEGGSGLDISTSAPGSLQMQYQQSMQLEERAEQIRSKSHLIQVEREKMQMELSHKRARVELERAASTSARNYEREVDRNQELLTRIRQLQEREAGAEEKMQEQLERNRQCQQNLDAASKRLREKEDSLAQAGETINALKGRISELQWSVMDQEMRVKRLESEKQELQEQLDLQHKKCQEANQKIQELQASQEARADHEQQIKDLEQKLSLQEQDAAIVKNMKSELVRLPRLERELKQLREESAHLREMRETNGLLQEELEGLQRKLGRQEKMQETLVGLELENERLLAKLQSWERLDQTMGLSIRTPEDLSRFVVELQQRELALKDKNSAVTSSARGLEKARQQLQEELRQVSGQLLEERKKRETHEALARRLQKRVLLLTKERDGMRAILGSYDSELTPAEYSPQLTRRMREAEDMVQKVHSHSAEMEAQLSQALEELGGQKQRADMLEMELKMLKSQSSSAEQSFLFSREEADTLRLKVEELEGERSRLEEEKRMLEAQLERRALQGDYDQSRTKVLHMSLNPTSVARQRLREDHSQLQAECERLRGLLRAMERGGTVPADLEAAAASLPSSKEVAELKKQVESAELKNQRLKEVFQTKIQEFRKACYTLTGYQIDITTENQYRLTSLYAEHPGDCLIFKATSPSGSKMQLLETEFSHTVGELIEVHLRRQDSIPAFLSSLTLELFSRQTVA [MAD1L1] | 48.4 | 47.8 | 0.414 | 0.454 | 0.361 | -0.0768 |
| MEDPQSKEPAGEAVALALLESPRPEGGEEPPRPSPEETQQCKFDGQETKGSKFITSSASDFSDPVYKEIAITNGCINRMSKEELRAKLSEFKLETRGVKDVLKKRLKNYYKKQKLMLKESNFADSYYDYICIIDFEATCEEGNPPEFVHEIIEFPVVLLNTHTLEIEDTFQQYVRPEINTQLSDFCISLTGITQDQVDRADTFPQVLKKVIDWMKLKELGTKYKYSLLTDGSWDMSKFLNIQCQLSRLKYPPFAKKWINIRKSYGNFYKVPRSQTKLTIMLEKLGMDYDGRPHCGLDDSKNIARIAVRMLQDGCELRINEKMHAGQLMSVSSSLPIEGTPPPQMPHFRK [ERI1] | 51 | 49.9 | -0.616 | 0.0498 | -0.0987 | -0.00712 |
| MEDPTLYIVERPLPGYPDAEAPEPSSAGAQAAEEPSGAGSEELIKSDQVNGVLVLSLLDKIIGAVDQIQLTQAQLEERQAEMEGAVQSIQGELSKLGKAHATTSNTVSKLLEKVRKVSVNVKTVRGSLERQAGQIKKLEVNEAELLRRRNFKVMIYQDEVKLPAKLSISKSLKESEALPEKEGEELGEGERPEEDAAALELSSDEAVEVEEVIEESRAERIKRSGLRRVDDFKKAFSKEKMEKTKVRTRENLEKTRLKTKENLEKTRHTLEKRMNKLGTRLVPAERREKLKTSRDKLRKSFTPDHVVYARSKTAVYKVPPFTFHVKKIREGQVEVLKATEMVEVGADDDEGGAERGEAGDLRRGSSPDVHALLEITEESDAVLVDKSDSD [PTRF] | 54.4 | 52.4 | -3.64 | -4.73 | -0.215 | 0.094 |
| MEDRLHMDNGLVPQKIVSVHLQDSTLKEVKDQVSNKQAQILEPKPEPSLEIKPEQDGMEHVGRDDPKALGEEPKQRRGSASGSEPAGDSDRGGGPVEHYHLHLSSCHECLELENSTIESVKFASAENIPDLPYDYSSSLESVADETSPEREGRRVNLTGKAPNILLYVGSDSQEALGRFHEVRSVLADCVDIDSYILYHLLEDSALRDPWTDNCLLLVIATRESIPEDLYQKFMAYLSQGGKVLGLSSSFTFGGFQVTSKGALHKTVQNLVFSKADQSEVKLSVLSSGCRYQEGPVRLSPGRLQGHLENEDKDRMIVHVPFGTRGGEAVLCQVHLELPPSSNIVQTPEDFNLLKSSNFRRYEVLREILTTLGLSCDMKQVPALTPLYLLSAAEEIRDPLMQWLGKHVDSEGEIKSGQLSLRFVSSYVSEVEITPSCIPVVTNMEAFSSEHFNLEIYRQNLQTKQLGKVILFAEVTPTTMRLLDGLMFQTPQEMGLIVIAARQTEGKGRGGNVWLSPVGCALSTLLISIPLRSQLGQRIPFVQHLMSVAVVEAVRSIPEYQDINLRVKWPNDIYYSDLMKIGGVLVNSTLMGETFYILIGCGFNVTNSNPTICINDLITEYNKQHKAELKPLRADYLIARVVTVLEKLIKEFQDKGPNSVLPLYYRYWVHSGQQVHLGSAEGPKVSIVGLDDSGFLQVHQEGGEVVTVHPDGNSFDMLRNLILPKRR [HLCS] | 50.8 | 51 | -0.0478 | 0.641 | -0.0872 | -0.216 |
| MEDYEQELCGVEDDFHNQFAAELEVLAELEGASTPSPSGVPLFTAGRPPRTFEEALARGDAASSPAPAASVGSSQGGARKRQVDADLQPAGSLPHAPRIKRPRLQVVKRLNFRSEEMEEPPPPDSSPTDITPPPSPEDLAELWGHGVSEAAADVGLTRASPAARNPVLRRPPILEDYVHVTSTEGVRAYLVLRADPMAPGVQGSLLHVPWRGGGQLDLLGVSLASLKKQVDGERRERLLQEAQKLSDTLHSLRSGEEEAAQPLGAPEEEPTDGQDASSHCLWVDEFAPRHYTELLSDDFTNRCLLKWLKLWDLVVFGHERPSRKPRPSVEPARVSKEATAPGKWKSHEQVLEEMLEAGLDPSQRPKQKVALLCGPPGLGKTTLAHVIARHAGYSVVEMNASDDRSPEVFRTRIEAATQMESVLGAGGKPNCLVIDEIDGAPVAAINVLLSILNRKGPQEVGPQGPAVPSGGGRRRRAEGGLLMRPIICICNDQFAPSLRQLKQQAFLLHFPPTLPSRLVQRLQEVSLRQGMRADPGVLAALCEKTDNDIRACINTLQFLYSRGQRELSVRDVQATRVGLKDQRRGLFSVWQEVFQLPRAQRRRVGQDPALPADTLLLGDGDAGSLTSASQRFYRVLHAAASAGEHEKVVQGLFDNFLRLRLRDSSLGAVCVALDWLAFDDLLAGAAHHSQSFQLLRYPPFLPVAFHVLFASSHTPRITFPSSQQEAQNRMSQMRNLIQTLVSGIAPATRSRATPQALLLDALCLLLDILAPKLRPVSTQLYSTREKQQLASLVGTMLAYSLTYRQERTPDGQYIYRLEPNVEELCRFPELPARKPLTYQTKQLIAREIEVEKMRRAEASARVENSPQVDGSPPGLEGLLGGIGEKGVHRPAPRNHEQRLEHIMRRAAREEQPEKDFFGRVVVRSTAVPSAGDTAPEQDSVERRMGTAVGRSEVWFRFNEGVSNAVRRSLYIRDLL [CHTF18] | 47 | 49.3 | 1.86 | 2.46 | 0.136 | -0.209 |
| MEEASEGGGNDRVRNLQSEVEGVKNIMTQNVERILARGENLEHLRNKTEDLEATSEHFKTTSQKVARKFWWKNVKMIVLICVIVFIIILFIVLFATGAFS [VAMP8] | 57.8 | 55.5 | -3.17 | -6.62 | -0.136 | 0.136 |
| MEEECRVLSIQSHVIRGYVGNRAATFPLQVLGFEIDAVNSVQFSNHTGYAHWKGQVLNSDELQELYEGLRLNNMNKYDYVLTGYTRDKSFLAMVVDIVQELKQQNPRLVYVCDPVLGDKWDGEGSMYVPEDLLPVYKEKVVPLADIITPNQFEAELLSGRKIHSQEEALRVMDMLHSMGPDTVVITSSDLPSPQGSNYLIVLGSQRRRNPAGSVVMERIRMDIRKVDAVFVGTGDLFAAMLLAWTHKHPNNLKVACEKTVSTLHHVLQRTIQCAKAQAGEGVRPSPMQLELRMVQSKRDIEDPEIVVQATVL [PDXK] | 55.5 | 56.3 | 0.134 | 0.0482 | 0.315 | -0.0576 |
| MEEIYAKFVSQKISKTRWRPLPPGSLQTAETFATGSWDNEENYISLWSIGDFGNLDSDGGFEGDHQLLCDIRHHGDVMDLQFFDQERIVAASSTGCVTVFLHHPNNQTLSVNQQWTTAHYHTGPGSPSYSSAPCTGVVCNNPEIVTVGEDGRINLFRADHKEAVRTIDNADSSTLHAVTFLRTPEILTVNSIGQLKIWDFRQQGNEPSQILSLTGDRVPLHCVDRHPNQQHVVATGGQDGMLSIWDVRQGTMPVSLLKAHEAEMWEVHFHPSNPEHLFTCSEDGSLWHWDASTDVPEKSSLFHQGGRSSTFLSHSISNQANVHQSVISSWLSTDPAKDRIEITSLLPSRSLSVNTLDVLGPCLVCGTDAEAIYVTRHLFS [NUP43] | 53.1 | 53.1 | -1.7 | -3.31 | -0.175 | 0.0611 |
| MEEKPGQPQPQHHHSHHHPHHHPQQQQQQPHHHHHYYFYNHSHNHHHHHHHQQPHQYLQHGAEGSPKAQPKPLKHEQKHTLQQHQETPKKKTGYGELNGNAGEREISLKNLSSDEATNPISRVLNGNQQVVDTSLKQTVKANTFGKAGIKTKNFIQKNSMDKKNGKSYENKSGENQSVDKSDTIPIPNGVVTNNSGYITNGYMGKGADNDGSGSESGYTTPKKRKARRNSAKGCENLNIVQDKIMQQETSVPTLKQGLETFKPDYSEQKGNRVDGSKPIWKYETGPGGTSRGKPAVGDMLRKSSDSKPGVSSKKFDDRPKGKHASAVASKEDSWTLFKPPPVFPVDNSSAKIVPKISYASKVKENLNKTIQNSSVSPTSSSSSSSSTGETQTQSSSRLSQVPMSALKSVTSANFSNGPVLAGTDGNVYPPGGQPLLTTAANTLTPISSGTDSVLQDMSLTSAAVEQIKTSLFIYPSNMQTMLLSTAQVDLPSQTDQQNLGDIFQNQWGLSFINEPSAGPETVTGKSSEHKVMEVTFQGEYPATLVSQGAEIIPSGTEHPVFPKAYELEKRTSPQVLGSILKSGTTSESGALSLEPSHIGDLQKADTSSQGALVFLSKDYEIESQNPLASPTNTLLGSAKEQRYQRGLERNDSWGSFDLRAAIVYHTKEMESIWNLQKQDPKRIITYNEAMDSPDQ [NUFIP2] | 53.8 | 52.4 | -0.0647 | -0.912 | -0.731 | 0.593 |
